The RNAGym collection of RNA variant scans (doi:10.1021/acssynbio.7b00057)

B1: Pistol ribozyme (parent)
chain: GGGUCGUUGUUCCAUAAUCGCGUGGAUAUGGCACGCAAGUUUCUACCGGGCACCGUAAAUGUCCGACUGGAGCCGUUCGGGCGGCUAUAAACAGACCUCAGGCCCGAAGCGUGGCGGCACCUGCCGCCGGUGGUAAAAAAGAUCGGAAGAGCACACGUCU

Variants of: B1
Assay: aptazyme ON/OFF ratio, guanine; higher = stronger switching; co-transcriptional cleavage with and without guanine

Point of comparison: U7G U8A U10G U11C C12A C13A, “aptazyme ON/OFF ratio” value 1.43. Against it:
- U7G U8C G9A U10G U11A C12G C13A — lower, 1.09
- U7G U8C G9A U10A U11C C12A C13U — lower, 1.13
- U7G U8C G9A U10A U11C C12A C13A — lower, 1.13
- U7G U8C G9A U10A U11C C12A C13G — lower, 1.25
- U7G U8A U10G U11C C12U C13A — higher, 1.46
- U7G U8A U10G U11C C12U C13G — higher, 1.52
- U7G U8A U10G U11C C12U C13U — lower, 1.1
- U7G U8C — lower, 1.32
- U7G U8C G9A U10A U11A C12U — lower, 1.4
- U7G U8C G9A U10A U11A C12A — lower, 1.28
- U7G U8C G9A U10A U11A C12G — lower, 1.22
- U7G U8C G9A U10C U11C C12G C13G — lower, 1.05
- U7G U8C G9A U10C U11C C12G C13A — lower, 1.15
- U7G U8C G9A U10C U11C C12G C13U — lower, 1.09
- U7G U8A U10G U11G C12A C13G — lower, 1.38
- U7G U8A U10G U11G C12A C13U — higher, 1.73
- U7G U8A U10G U11G C12A C13A — lower, 1.16
- U7G U8A U10G U11C C12G C13U — lower, 1.25
- U7G U8A U10G U11C C12G C13G — lower, 1.26
- U7G U8A U10G U11C C12G C13A — lower, 1.4
- U7G U8C G9A U10A U11A C13U — lower, 1.21
- U7G U8C G9A U10A U11A C13G — lower, 1.04
- U7G U8C G9A U10A U11A C13A — lower, 1.09
- U7G U8C G9A U10G U11A C12U C13A — lower, 1.09
- U7G U8C G9A U10G U11A C12U C13G — lower, 1.09
- U7G U8C G9A U10G U11A C12U C13U — lower, 1.13
- U7G U8A U10G U11C C12A C13U — lower, 1.2
- U7G U8A U10G U11C C12A C13G — lower, 1.17
- U7G U8C G9A U10G U11G C12A C13A — lower, 1.13
- U7G U8C G9A U10G U11G C12A C13U — lower, 1.3
- U7G U8C G9A U10G U11G C12A C13G — lower, 1.1
- U7G U8A U11G C13U — lower, 1.21
- U7G U8A U11G C13G — lower, 1.15
- U7G U8A U11G C13A — lower, 1.2
- U7G U8C G9A U10A U11G C12U — lower, 1.26
- U7G U8C G9A U10A U11G C12G — lower, 1.19
- U7G U8C G9A U10A U11G C12A — lower, 1.06
- U7G U8A U11G C12U C13U — lower, 1.17
- U7G U8A U11G C12U C13A — lower, 1.34
- U7G U8A U11G C12U C13G — lower, 1.26
- U7G U8C G9A U10C C12G — lower, 1.29
- U7G U8C G9A U10C C12A — lower, 1.18
- U7G U8C G9A U10C C12U — lower, 1.37
- U7G U8C C12G C13U — lower, 1.19
- U7G U8C C12G C13A — lower, 1.08
- U7G U8C C12G C13G — lower, 1.08
- U7G U8C G9A U10G C12U C13U — lower, 1.26
- U7G U8C G9A U10G C12U C13G — lower, 1.1
- U7G U8C G9A U10G C12U C13A — lower, 1.12
- U7G U8C G9A U10G U11C C12U C13U — lower, 1.12
- U7G U8C G9A U10G U11C C12U C13G — lower, 1.16
- U7G U8C G9A U10G U11C C12U C13A — lower, 1.12
- U7G U8A U11A C13G — lower, 1.15
- U7G U8A U11A C13A — higher, 1.45
- U7G U8A U11A C13U — lower, 1.4
- U7G U8C G9A U10C U11G C12U C13U — lower, 1.18
- U7G U8C G9A U10C U11G C12U C13A — lower, 1.26
- U7G U8C G9A U10C U11G C12U C13G — lower, 1.22
- U7G U8A U10G U11G C12G C13U — higher, 1.7
- U7G U8A U10G U11G C12G C13G — lower, 0.981
- U7G U8A U10G U11G C12G C13A — lower, 1.15
- U7G U8A U11G C12G C13G — lower, 1.32
- U7G U8A U11G C12G C13A — lower, 1.16
- U7G U8A U11G C12G C13U — lower, 1.4
- U7G U8C G9A U10G U11A — lower, 1.07
- U7G U8C G9A U10G U11G — higher, 1.77
- U7G U8C G9A U10G U11C — lower, 1.04
- U7G U8C G9A U10G C13U — lower, 1.26
- U7G U8C G9A U10G C13G — lower, 1.19
- U7G U8C G9A U10G C13A — lower, 1.28
- U7G U8C G9A U10A U11G C12A C13G — lower, 1.12
- U7G U8C G9A U10A U11G C12A C13A — lower, 1.06
- U7G U8C G9A U10A U11G C12A C13U — lower, 1.09
- U7G U8C G9A U11A C12U — lower, 1.36
- U7G U8C G9A U11A C12G — lower, 1.1
- U7G U8C G9A U11A C12A — lower, 1.2
- U7G U8C G9A U10A U11C — lower, 1.11
- U7G U8C G9A U10A U11G — higher, 1.87
- U7G U8C G9A U10A U11A — higher, 3.25
- U7G U8C G9A U10G U11A C12G — lower, 1.08
- U7G U8C G9A U10G U11A C12A — lower, 1.11
- U7G U8C G9A U10G U11A C12U — lower, 1.06
- U7G U8A U10G U11A — higher, 2.15
- U7G U8A U10G U11C — higher, 2.11
- U7G U8A U10G U11G — higher, 1.59
- U7G U8A U11A C12U C13A — lower, 1.31
- U7G U8A U11A C12U C13U — lower, 1.36
- U7G U8A U11A C12U C13G — lower, 1.26
- U7G U8C G9A U10A U11A C12G C13U — lower, 1.15
- U7G U8C G9A U10A U11A C12G C13G — lower, 1.13
- U7G U8C G9A U10A U11A C12G C13A — lower, 1.13
- U7G U8C G9A U10A U11A C12U C13G — lower, 1.15
- U7G U8C G9A U10A U11A C12U C13U — lower, 1.14
- U7G U8C G9A U10A U11A C12U C13A — lower, 1.13
- U7G U8C G9A U10A U11G C13A — lower, 1.13
- U7G U8C G9A U10A U11G C13U — lower, 1.23
- U7G U8C G9A U10A U11G C13G — lower, 1.04
- U7G U8A U11C C12A — lower, 1.29
- U7G U8A U11C C12G — lower, 1.24
- U7G U8A U11C C12U — lower, 1.41
- U7G U8C G9A U10C U11C C12U C13G — lower, 1.04
- U7G U8C G9A U10C U11C C12U C13A — lower, 1.04
- U7G U8C G9A U10C U11C C12U C13U — lower, 1.06
- U7G U8C G9A U10C U11C C12U — lower, 1.09
- U7G U8C G9A U10C U11C C12A — lower, 1.16
- U7G U8C G9A U10C U11C C12G — lower, 1.16
- U7G U8C G9A U10C C12A C13U — lower, 1.19
- U7G U8C G9A U10C C12A C13G — lower, 1.14
- U7G U8C G9A U10C C12A C13A — lower, 1.12
- U7G U8C G9A C13A — lower, 1.09
- U7G U8C G9A C13G — lower, 1.03
- U7G U8C G9A C13U — lower, 1.22
- U7G U8A U11C C12U C13U — higher, 1.47
- U7G U8A U11C C12U C13A — lower, 1.32
- U7G U8A U11C C12U C13G — lower, 1.09
- U7G U8A U11G C12A C13G — lower, 1.37
- U7G U8A U11G C12A C13U — lower, 1.34
- U7G U8A U11G C12A C13A — lower, 1.24
- U7G U8A U11G C12U — lower, 1.25
- U7G U8A U11G C12G — lower, 1.33
- U7G U8A U11G C12A — higher, 1.45
- U7G U8C G9A U10C U11C C13U — lower, 1.01
- U7G U8C G9A U10C U11C C13G — lower, 1.03
- U7G U8C G9A U10C U11C C13A — lower, 1.02
- U7G U8A U11A C12G — lower, 1.22
- U7G U8A U11A C12A — lower, 1.25
- U7G U8A U11A C12U — the same, 1.43
- U7G U8C G9A U10G C12G C13A — lower, 1.12
- U7G U8C G9A U10G C12G C13G — lower, 1.05
- U7G U8C G9A U10G C12G C13U — lower, 1.15
- U7G U8C G9A U10G U11A C13U — lower, 1.05
- U7G U8C G9A U10G U11A C13A — lower, 1.05
- U7G U8C G9A U10G U11A C13G — lower, 1.04
- U7G U8C G9A U10C U11A C12G C13A — lower, 1.06
- U7G U8C G9A U10C U11A C12G C13U — lower, 1.33
- U7G U8C G9A U10C U11A C12G C13G — lower, 1.21
- U7G U8A U10G C13U — lower, 1.29
- U7G U8A U10G C13A — lower, 1.3
- U7G U8A U10G C13G — lower, 1.32
- U7G U8A U11C C12A C13G — lower, 1.36
- U7G U8A U11C C12A C13U — higher, 1.46
- U7G U8A U11C C12A C13A — lower, 1.23
- U7G U8A U10G U11C C12G — lower, 1.02
- U7G U8A U10G U11C C12U — lower, 1.27
- U7G U8A U10G U11C C12A — higher, 1.48
- U7G U8C G9A U10C U11G C12G — lower, 1.12
- U7G U8C G9A U10C U11G C12A — lower, 1.07
- U7G U8C G9A U10C U11G C12U — lower, 1.37
- U7G U8C G9A C12A C13A — lower, 1.08
- U7G U8C G9A C12A C13U — lower, 1.06
- U7G U8C G9A C12A C13G — lower, 1.05
- U7G U8C G9A C12U C13A — lower, 1.03
- U7G U8C G9A C12U C13U — lower, 1.03
- U7G U8C G9A C12U C13G — lower, 1.02
- U7G U8C G9A U10A U11C C12U — lower, 1.11
- U7G U8C G9A U10A U11C C12A — lower, 1.31
- U7G U8C G9A U10A U11C C12G — lower, 1.13
- U7G U8C G9A U10G U11G C13G — lower, 1.28
- U7G U8C G9A U10G U11G C13U — lower, 1.38
- U7G U8C G9A U10G U11G C13A — lower, 1.31
- U7G U8C C13G — lower, 1.07
- U7G U8C C13A — lower, 1.21
- U7G U8C C13U — higher, 1.46
- U7G U8C G9A U10A C12A C13U — lower, 1.2
- U7G U8C G9A U10A C12A C13G — lower, 1.13
- U7G U8C G9A U10A C12A C13A — lower, 1.23
